Test results from the Human Domainome abundance scans (Beltran et al. 2025).
± gives the uncertainty stated by the source.

B1: Dynamin-binding protein, residues 146 to 206; numbered along this chain, Q6XZF7 (parent)
chain: SMGQARALMGLSAQLDEELDFREGDVITIIGVPEPGWFEGELEGRRGIFPEGFVELLGPLR

Variants of: B1
Assay: abundance fitness (aPCA) (normalised: wild type 0, dead -1); higher = more abundant; growth selection in yeast, the domain comes from the species named
Conditions: Homo sapiens

Variant	abundance fitness
SMGQARALMGLSAQLDEELDFREGDVITIIGVPEPGWFEGELEGRRGIFPEGFVELLGMLR	-0.386 ± 0.34
SMGQARALMGLSAQLDEELDFREGDSITIIGVPEPGWFEGELEGRRGIFPEGFVELLGPLR	-0.704 ± 0.059
SMGQARALMGLSAQLDEELDFRETDVITIIGVPEPGWFEGELEGRRGIFPEGFVELLGPLR	-0.818 ± 0.12
SMGQARALMGLSAQLDEELDFREGDVITIIGFPEPGWFEGELEGRRGIFPEGFVELLGPLR	-0.446 ± 0.15
SMGQARALMGLSAQLDEELDFREGDVITIIGNPEPGWFEGELEGRRGIFPEGFVELLGPLR	-0.232 ± 0.17
SMGQARALMGLSAQLDEELDFREGDVITIIGVYEPGWFEGELEGRRGIFPEGFVELLGPLR	-0.587 ± 0.14
SMGQARALMGLSAQLDEELDFREGDVITIIGVPEPGWFEGELEGRRGIFPNGFVELLGPLR	-0.66 ± 0.15
SMGQARALMGLSAQLDEELDFREGDVITIIGVPEPGWFEGELEGRRGIFPEGFVELLGPLV	0.019 ± 0.083
SMGQARALMGLSAQLDEEKDFREGDVITIIGVPEPGWFEGELEGRRGIFPEGFVELLGPLR	-0.705 ± 0.35
SMGQARALMGLSAQLDEELDFREGDVITIIGVPEPGWFEGELEGRRGIFPEGFVELLGTLR	-0.685 ± 0.18
SMGQARALMGLSAQLDEELDFREGDVITIIGVTEPGWFEGELEGRRGIFPEGFVELLGPLR	-0.386 ± 0.16
SMGQARALMGLSAQLDEELDFREYDVITIIGVPEPGWFEGELEGRRGIFPEGFVELLGPLR	-0.729 ± 0.1
SMGQARALMGLSAQLDEELDFREHDVITIIGVPEPGWFEGELEGRRGIFPEGFVELLGPLR	-0.679 ± 0.17
SMGQARALMGLSAYLDEELDFREGDVITIIGVPEPGWFEGELEGRRGIFPEGFVELLGPLR	-0.537 ± 0.16
SMGQARALMGLSAQLDEELDFREGDVITIIGVPEPGWFEGELEGRRGIFPEGFVELNGPLR	-0.375 ± 0.052
SCGQARALMGLSAQLDEELDFREGDVITIIGVPEPGWFEGELEGRRGIFPEGFVELLGPLR	-0.521 ± 0.095
SMGQARALMGLSAQLDEELDFREGDVITIIGVAEPGWFEGELEGRRGIFPEGFVELLGPLR	-0.971 ± 0.3
SMGQARATMGLSAQLDEELDFREGDVITIIGVPEPGWFEGELEGRRGIFPEGFVELLGPLR	0.014 ± 0.057
SMGQARALMGLSAQLDEELDFREGDVITIIGVPEPGWFEGELEGRRGIFPEGFVELLGPPR	-0.368 ± 0.19
SMGQARALMGLSAQLDEELDFREGDVITIIGVPEEGWFEGELEGRRGIFPEGFVELLGPLR	-0.018 ± 0.13
SMGQARALMGLSAQLDEELDFRERDVITIIGVPEPGWFEGELEGRRGIFPEGFVELLGPLR	-0.778 ± 0.09
SMGQARALMGLSAQLDEELDFREGDVITIIGVPEPGWFEFELEGRRGIFPEGFVELLGPLR	-0.901 ± 0.087

Variant	abundance fitness
SMGQARALMGLSAQLDEELDFREPDVITIIGVPEPGWFEGELEGRRGIFPEGFVELLGPLR	-0.749 ± 0.13
SVGQARALMGLSAQLDEELDFREGDVITIIGVPEPGWFEGELEGRRGIFPEGFVELLGPLR	-0.277 ± 0.062
SMGQARALMGLSAQLDEELDFREGDVITIIGVPEPGWFEGELEGRRGIFPFGFVELLGPLR	-0.621 ± 0.32
SMGQARALMGLSAQLDEELDFREGDVITIIGVKEPGWFEGELEGRRGIFPEGFVELLGPLR	-0.215 ± 0.13
SMGQARALMGLSAQLDEELDFREGDVITIIGVPEPGWPEGELEGRRGIFPEGFVELLGPLR	-0.994 ± 0.16
SMGQARALMGVSAQLDEELDFREGDVITIIGVPEPGWFEGELEGRRGIFPEGFVELLGPLR	-0.402 ± 0.081
SMGQARALMGLSAQLDEELDFREGDVITIIGVPEPGWFEGELEGRRGIFPEEFVELLGPLR	-0.189 ± 0.25
SMGQARALMGLSAQLDEELDFREGDVITIIGVPEPGWFELELEGRRGIFPEGFVELLGPLR	-0.762 ± 0.078
SMGQARALMGLSAQLDEELDFREGDVITIIWVPEPGWFEGELEGRRGIFPEGFVELLGPLR	-0.955 ± 0.36
SMGQARALMGLSAQLDEELDFREGDVITIIGVPEPGWFEGELEGRRGIFPEGFVELWGPLR	-1.03 ± 0.2
SMGQARALMGLSAQLDEELDFREGDVITIIGVPEPGWFEGELEGRRGIFKEGFVELLGPLR	-0.212 ± 0.17
CMGQARALMGLSAQLDEELDFREGDVITIIGVPEPGWFEGELEGRRGIFPEGFVELLGPLR	-0.077 ± 0.056
SMGQARALMGLSAQLDEELDFREGDVITIIGVPEPGWFEGQLEGRRGIFPEGFVELLGPLR	-0.267 ± 0.11
SMGQARALFGLSAQLDEELDFREGDVITIIGVPEPGWFEGELEGRRGIFPEGFVELLGPLR	-0.225 ± 0.045
SMGQARALMGLSAQLDEELDFREGDVITIIGVPECGWFEGELEGRRGIFPEGFVELLGPLR	-0.363 ± 0.09
SMGQARALMGLSADLDEELDFREGDVITIIGVPEPGWFEGELEGRRGIFPEGFVELLGPLR	-0.145 ± 0.058
SMGQARALMGLSAQLDEELDFREGDVITIIGVPEPGWFEGELEGRRGIFPEHFVELLGPLR	0.404 ± 0.22
SMGQARALMGLSAQLDEELDFREGDVITIIGVPEWGWFEGELEGRRGIFPEGFVELLGPLR	-0.926 ± 0.34
SMGQARALMGLSAQLDEELDFREGDVITIIGVPGPGWFEGELEGRRGIFPEGFVELLGPLR	-0.379 ± 0.16
SMGQARALMGLSAQLDEELDFREGDVITIIGVPEPEWFEGELEGRRGIFPEGFVELLGPLR	-0.958 ± 0.2
SMGQARALMGLSAQLDEELDFREGDVITIIGVPEPGWFEGELEGRRVIFPEGFVELLGPLR	-0.719 ± 0.069
SMGQARALMGLSAQLDEELDFREGDVITIIGVPEPGWFEGETEGRRGIFPEGFVELLGPLR	-0.769 ± 0.12

Variant	abundance fitness
SMGQARALMGLSAQLDEKLDFREGDVITIIGVPEPGWFEGELEGRRGIFPEGFVELLGPLR	0.23 ± 0.38
SMGQARALMGLSAQLDEELDFREGDVITIIGVPEPKWFEGELEGRRGIFPEGFVELLGPLR	-0.347 ± 0.12
SMGQARALMGLSAQLDEELDFREGDVITIIGVPEPGWFEGELDGRRGIFPEGFVELLGPLR	0.089 ± 0.06
SMGQARALMGLSAQLDEELDFREGDVITIKGVPEPGWFEGELEGRRGIFPEGFVELLGPLR	-0.129 ± 0.14
SMGQARALMGLSAQGDEELDFREGDVITIIGVPEPGWFEGELEGRRGIFPEGFVELLGPLR	0.08 ± 0.082
SMGQARALCGLSAQLDEELDFREGDVITIIGVPEPGWFEGELEGRRGIFPEGFVELLGPLR	-0.013 ± 0.061
IMGQARALMGLSAQLDEELDFREGDVITIIGVPEPGWFEGELEGRRGIFPEGFVELLGPLR	0.103 ± 0.084
SMGQARALMGLSAQLDEELDFREGDVITIIGVPEPGWFEGELEGWRGIFPEGFVELLGPLR	-0.958 ± 0.25
SMGQARALMGLSAQLDEELDFREGDVITIIGVPENGWFEGELEGRRGIFPEGFVELLGPLR	-0.471 ± 0.11
RMGQARALMGLSAQLDEELDFREGDVITIIGVPEPGWFEGELEGRRGIFPEGFVELLGPLR	-0.319 ± 0.12
SMGQARALMGLSAQLDEELDFREGDVITIIGVPEPGWFEKELEGRRGIFPEGFVELLGPLR	-0.906 ± 0.16
SMGQARALMGLSAQLDEELDVREGDVITIIGVPEPGWFEGELEGRRGIFPEGFVELLGPLR	-0.711 ± 0.09
SMGQARALMGLSAQLDEELDFREGDVITIIGVPEPGWFEGELEGRRGIFPEGFNELLGPLR	-0.674 ± 0.45
SMGQARALMGLSAQLDEELDFREGDVITIIGVPERGWFEGELEGRRGIFPEGFVELLGPLR	-0.309 ± 0.077
SMGQARALMGLSAQLDEELDFREGMVITIIGVPEPGWFEGELEGRRGIFPEGFVELLGPLR	-0.724 ± 0.14
SMGQARALMGLSAQLDEELDFREGDVITIIGVPEPGWFEGELEGRRGIFYEGFVELLGPLR	-0.794 ± 0.11
SMGQARALMGLSAQLDEELDFREGDVITAIGVPEPGWFEGELEGRRGIFPEGFVELLGPLR	-0.665 ± 0.16
SMGQARALMGLSAQLDEELDFREGDVITIIGVPEPGWFEGELEGRRGIFPEGFVELLGPLN	-0.054 ± 0.077
SMGQARALMGLSAQLDEELDFREGDVITIIGVPEPGWFEGELEGRRGIFPETFVELLGPLR	-0.083 ± 0.15
SMGQARALMGLSAQLDEELDFREGDVITIIGVPEPGWFEGELEGRRGIFPEGFVKLLGPLR	-0.253 ± 0.17
SMGQARALMGLSAQLNEELDFREGDVITIIGVPEPGWFEGELEGRRGIFPEGFVELLGPLR	-0.315 ± 0.1
SMGQARALMGLSAQLDEELDFREGDVITIIGVNEPGWFEGELEGRRGIFPEGFVELLGPLR	-1.07 ± 0.24

Variant	abundance fitness
SMGQARALMGLSAQLDEELDFREGDVITIIGVPEAGWFEGELEGRRGIFPEGFVELLGPLR	-0.116 ± 0.062
SMGQARALMGLSAQLDEELDFREGDVITIIGVREPGWFEGELEGRRGIFPEGFVELLGPLR	-0.155 ± 0.071
SMGQARALMGLSAQLDEELDNREGDVITIIGVPEPGWFEGELEGRRGIFPEGFVELLGPLR	-0.832 ± 0.11
SMGQARALMGLSAQLDEELDFREGDVITIIGVPEPGWFEGELEGRRGIFPEGFVELLGPLF	-0.363 ± 0.12
SMGQARALMGLSAQLDEELDFREGDVITIIGVPEPGWFEGELEGRRGIFPEGFVELLGPLL	0.336 ± 0.35
SMGQARALMGLSAQLDEELDFREGDVITIIGVPEPGWFEGELEGRRGIFPEGFVERLGPLR	-0.399 ± 0.12
SMGQARALMGLSAQLDEELDFREGDVITIIGVPEPGWFEGELEGRRGIFMEGFVELLGPLR	-0.38 ± 0.11
SMGQARALMGLSAQLDEELDFREGDVITIIGVPEPGWFEGELEGRRGIWPEGFVELLGPLR	-1.1 ± 0.24
SMGQARELMGLSAQLDEELDFREGDVITIIGVPEPGWFEGELEGRRGIFPEGFVELLGPLR	-0.989 ± 0.33
SMGQARALMGLSAQLDEELDFREGDVITIIGVPEPGWFEGELEGRRGIFEEGFVELLGPLR	-0.509 ± 0.19
SMGQARVLMGLSAQLDEELDFREGDVITIIGVPEPGWFEGELEGRRGIFPEGFVELLGPLR	-0.836 ± 0.24
SMGQARALMGLSAQLDEELDFREGDRITIIGVPEPGWFEGELEGRRGIFPEGFVELLGPLR	-0.353 ± 0.054
SMGQARALMGLSAQLDEELDFREGDVITIIGVPEPGWWEGELEGRRGIFPEGFVELLGPLR	-0.667 ± 0.11
SMGQARALMGLSAQLDEELDFREGDVITIIGVPEPGWFEGELEGRRGIFPEGFVELLGPLS	-0.017 ± 0.068
SMGQARALMGLSAQLDEELDFREGDVITIMGVPEPGWFEGELEGRRGIFPEGFVELLGPLR	-0.481 ± 0.27
SMGQARALMGLSAQLDEELDFREGDVITIIGVPEPGWFEGELEGRRGIFCEGFVELLGPLR	-0.93 ± 0.15
SMGQARALMGLSAKLDEELDFREGDVITIIGVPEPGWFEGELEGRRGIFPEGFVELLGPLR	-0.092 ± 0.29
SMGQARALMGLSAQLDEELDFREGDVITIIGVPESGWFEGELEGRRGIFPEGFVELLGPLR	-0.292 ± 0.068
SMGQARALMGLSAQLDEELDFREGDVITIIGVPEPGWFEGELEGRRGIFPEGFVELLGKLR	-0.889 ± 0.35
SMGQARALMGLSAQLDEELDFREGDVITIIGVPEPGWFEGELEGRREIFPEGFVELLGPLR	-0.962 ± 0.37
FMGQARALMGLSAQLDEELDFREGDVITIIGVPEPGWFEGELEGRRGIFPEGFVELLGPLR	-0.029 ± 0.087
